In patent US20170267727A1, “Conjugates of pH Low Insertion Peptide and Monomethyl Auristatins in the Treatment of Solid Tumors” (Lehigh University, priority 2016, published 2017):
Positions of bridges follow the written chain, without caps; N, C: chain ends. Non-standard residues stand in square brackets, D forms with d. Chains are numbered I, II in the order given. *: point of attachment. Dolaproine = CO[C@@H]([C@@H]1CCCN1)[C@@H](C)C(=O)O; Dil = CC[C@H](C)[C@H](NC)[C@@H](CC(=O)O)OC; X1 = C[C@@H](N*)[C@@H](O)c1ccccc1; NMeV = CN[C@H](C(=O)O)C(C)C; Mpa = O=C(O)CCS

Assay: Construct Stability HPLC in Mouse Serum
Format: in vitro ADME
Conditions: 37° C., 48 h
Description: FIG. 8A, FIG. 8B, and FIG. 8C show Purity check and Chemical stability of pHLIP-MMAE conjugates. (FIG. 8A) and (FIG. 8B): HPLC traces of pHLIP(WT)-MMAE and pHLIP(D25E)-MMAE, respectively: Purified conjugates (upper panels), 10 μM of conjugate in cell media (middle panels) and after incubation in cell media for 2 h at pH 5.0 and 37° C. (lower panels). The small peak observed around 27 min in (FIG. 8B) upper panel corresponds to some residual free pHLIP (<15%), which is known to not be cytotoxic (FIG. 7). (FIG. 8C) HPLC traces of Alexa750-pHLIP(WT)-MMAE: Purified conjugate (upper panel), 10 μM Alexa 750-pHLIP(WT)-MMAE before (upper panel) and after 48 h incubation in mouse serum at 37° C. (lower panel). Purity checks and chemical stability runs were performed on different column and with different flow rate, explaining the difference in retention times and peak broadness (see Experimental Section). […]
Peptide solutions were incubated at either pH 7.4 or pH 5.0 (37° C. and 5% CO2) and 100 μL aliquots were monitored via RP-HPLC at various time points (Agilent Eclipse XDB-C18 […] 9.4×250 mm; flow rate 2 mL/min; phase A: water 0.01% TFA; phase B: acetonitrile 0.01% TFA; gradient 45 min from 95/5 A/B to 0/100 A/B). […] The stability of Alexa750-pHLIP(WT)-MMAE was determined in mouse serum by solubilizing the construct to incubating it at 37° C. and monitoring via RP-HPLC at specific time points.

Substance: I: H-AAEQNPIYWARYADWLFTTPLLLLDLALLVDADEGTCG-OH / II: [Mpa][NMeV]V[Dil][Dolaproine]-X1 (disulfide I:37-II:1) [pHLIP(WT)-MMAE]
- stability in serum: stable in serum
